Results on one molecule are retold here after paper PMC8113581 (Nature Communications, 2021).

The test concerns the target T1, SARS-CoV-2 Spike S1+S2 ECD, his Tag protein (SARS-CoV-2, Wuhan-Hu-1, UniProt P0DTC2).
T1 construct: also called full-length S protein; full-length S-his; source: bought: Sino Biological
Kind of test: ELISA. The note with it: both partners purified.

B1: P4A1 (antibody, V domains shown)
VH: EVQLVESGGGLIQPGGSLRLSCAASGFIVSSNYMSWVRQAPGKGLEWVSIIYSGGSTFYADSVKGRFTISRDNSKNTLYLQMNSLRVEDTAVYYCARDLQELGSLDYWGQGTLVTVSS
VL: DIQMTQSPSSVSASVGDRVTITCRASQGISSWLAWYQQKPGKAPKLLIYAASSLQSGVPSRFSGSGSGTDFTLTISSLQPEDFATYYCQEANSFPYTFGQGTKLEIK
notes: also called P4A1 (IgG1); IgG1 form P4A1
B1: the binding result is recorded as “binds”.
